From patent publication US6867180B1, “Use of calreticulin and calreticulin fragments to inhibit endothelial cell growth and angiogenesis, and suppress tumor growth” (The United States of America as represented by the …, priority 1998, dated 2005)

B1: mIL-12: murine IL-12 (Interleukin 12) (protein, UniProt P43431 23-215; P43432 23-335, looked up)
Interleukin-12 subunit alpha: RVIPVSGPARCLSQSRNLLKTTDDMVKTAREKLKHYSCTAEDIDHEDITRDQTSTLKTCLPLELHKNESCLATRETSSTTRGSCLPPQKTSLMMTLCLGSIYEDLKMYQTEFQAINAALQNHNHQQIILDKGMLVAIDELMQSLNHNGETLRQKPPVGEADPYRVKMKLCILLHAFSTRVVTINRVMGYLSSA
Interleukin-12 subunit beta: MWELEKDVYVVEVDWTPDAPGETVNLTCDTPEEDDITWTSDQRHGVIGSGKTLTITVKEFLDAGQYTCHKGGETLSHSHLLLHKKENGIWSTEILKNFKNKTFLKCEAPNYSGRFTCSWLVQRNMDLKFNIKSSSSSPDSRAVTCGMASLSAEKVTLDQRDYEKYSVSCQEDVTCPTAEETLPIELALEARQQNKYENYSTSFFIRDIIKPDPPKNLQMKPLKNSQVEVSWEYPDSWSTPHSYFSLKFFVRIQRKKEKMKETEEGCNQKGAFLVEKTSTEVQCKGGNVCVQAQDRYYNSSCSKWACVPCRVRS
B2: MBP-120-180 calreticulin: recombinant 61 amino acid calreticulin fragment, amino acids 120-180 (Seq. I.D. No. 5), fused to MBP (protein)
chain: CGPGTKKVHVIFNYKGKNVLINKDIRCKDDEFTHLYTLIVRPDNTYEVKIDNSQVESGSLE
modifications: left off: large carriers

How the values were obtained:
[1] = test system: human Burkitt lymphoma cell line CA46; assay: Combination of vasostatin and IL-12 on human Burkitt lymphoma in nude mice; assay type: in vivo, BALB/c nude mice; settings: both experiments; MBP-vasostatin 100 μg/day, mIL-12 100-200 ng/day s.c.
Method: Athymic BALB/c nude mice received 400 rad total body irradiation and 24 hours later were inoculated (4×10^6 cell/mouse) with the human Burkitt lymphoma cell line CA46. A and B. 5 days after cell inoculation the established tumors were treated with daily s.c. inoculations (6 days/week) of either formulation buffer alone (closed circles), MBP-vasostatin alone (Seq. I.D. No. 4; 100 μg/day; open squares), mIL-12 alone (200 ng/day for 8 days followed by 100 ng/day; open circles), or the combination of MBP-vasostatin (Seq. I.D. No. 4) and mIL-12 (same dose used as single agents; open triangles). All mice were sacrificed after 15 days of treatment. C and D. 1 day after cell inoculation, s.c. treatment with MBP-vasostatin (Seq. I.D. No. 4; 100 μg/day; 6 days/week) or formulation buffer was started; s.c. treatment with IL-12 (100 ng/mouse; 6 days/week) was started 2 days later in mice that had received buffer alone or MBP-vasostatin (Seq. I.D. No. 4). Therefore, four groups of mice were tested: Mice receiving buffer alone (closed circles); MBP-vasostatin alone (open squares); IL-12 alone (open circles); and MBP-vasostatin plus IL-12 (open triangles). The mice received 7 days treatment with MBP-vasostatin (Seq. I.D. No. 4) and 5 days treatment with IL-12, and were observed untreated for 14 days at which time all mice were sacrificed. […]

[2] = test system: human Burkitt lymphoma cells (CA46 cell line); assay: Prevention of human Burkitt lymphoma growth in athymic mice; assay type: in vivo, BALB/c athymic mice; settings: 4×10^6 CA46 cells; 75 μg/day, 6 days/week, 42 days
Description: FIGS. 6A, 6B, 6C and 6D are graphs showing the inhibition of tumor growth by vasostatin (Seq. I.D. No. 4) and calreticulin (Seq. I.D. No. 3). Burkitt lymphoma cells (CA46 cell line, 1×10^7 cells) were inoculated subcutaneously (s.c.) into BALB/c athymic mice, 6 weeks of age. Beginning on the day of cell inoculation and continuing thereafter daily, 6 days/week, mice were inoculated s.c. with either control buffer (open symbols) or test protein (closed symbols). The results reflect the % mice with tumor as a function of time. A. 12 mice were inoculated with control purified GST protein (Seq. I.D. No. 2; 20 μg/day×14 days), and 13 mice were inoculated with purified GST-calreticulin ([…]; 60 μg/day×14 days). […]
BALB/c nu/nu female mice, 6 weeks of age (National Cancer Institute, Frederick, Md.) maintained in pathogen-limited conditions, received 400 rad (1 rad=0.01 Gy) total body irradiation and 24 hours later were injected s.c. in the right abdominal quadrant with 10^7 exponentially growing human Burkitt lymphoma cells (CA46 cell line; Sgadari et al., Proc. Natl. Acad. Sci. U.S.A. 93:13791-13796, 1996) in 0.2 ml PBS. […] A subcutaneous mass appearing at or proximal to the site of cell inoculation was considered a tumor when it measured at least 0.16 cm^2 in surface area and increased in size by at least 0.1 cm^2 over the following week. […]

[3] = test system: Fetal bovine heart endothelial cells
Method: Fetal bovine heart endothelial cells (American Type Culture Collection, ATCC, Manassas, Va.) were grown through passage 12 in DMEM culture medium (BioWhittaker, Walkersville, Md.) containing 10% heat inactivated fetal bovine serum (BioWhittaker), 100 ng/ml bFGF (R&D Systems, Minneapolis, Minn.), and 5 μg/ml gentamicin (Sigma). For proliferation assays, cells were trypsinized (Trypsin/EDTA, Gibco BRL), washed, suspended in culture medium (DMEM containing 10% heat inactivated fetal bovine serum and 5 μg/ml gentamicin), plated (800 cells/well in 0.2 ml culture medium) in triplicate onto 96 well plates, and incubated for 5 days.

[4] = test system: peptides KLGFFKR, KAFFKR and KVFFKR coupled to CNBr-activated Sepharose; assay: Affinity column binding to integrin / steroid receptor motif peptides; settings: elution with 20 mM EDTA
Description: FIG. 18 is a Western blot analysis of fractions obtained through affinity purification over a column containing KXaa1FFXaa2R (Seq. I.D. No. 11) and KXaa1GFFKR (Seq. I.D. No. 10). Purified supernatants from the VDS-0 cell line containing full length calreticulin and N-terminal fragments of calreticulin were affinity purified over a mixture of peptides KLGFFKR (Seq. I.D. No. 13), KAFFKR (Seq. I.D. No. 33) and KVFFKR (Seq. I.D. No. 32) coupled to CNBr-activated Sepharose. Starting material (lane 1), unbound material (lanes 2, 3) and bound material (lanes 4, 5) were separated by SDS-PAGE, transferred to nitrocellulose, and subsequently stained with a rabbit antiserum against human calreticulin.
To this end, purified preparations of the VDS-O cell line containing full length calreticulin (Seq. I.D. No. 3) as well as N-terminal calreticulin fragments were prepared and tested to determine how these components were retained over an affinity column. To prepare the affinity column, three peptides were synthesized ([…], Seq. I.D. 13; KAFFKR, Seq. I.D. No. 33; and KVFFKR, Seq. I.D. No. 32), purified, and coupled to CNBr-activated Sepharose 4B (Pharmacia). First, the ability of calreticulin, purified from the culture supernatant of the lymphoblastoid cell line VDS-O, to selectively bind to the column and be eluted by a buffer solution containing 20 mM EDTA and 100 mM NaCl, was verified. […]

[5] = test system: bFGF-induced neovascularization; assay: Murine Matrigel assay of angiogenesis in vivo; parameters: species or system BALB/c nude mice; settings: Exp. 4; concentration not given; bFGF 150 ng/ml
Method: The murine Matrigel assay (Passaniti et al., Lab. Invest. 67:519-528, 1992) was employed to evaluate the effects of calreticulin and calreticulin fragments on angiogenesis in vivo. The Matrigel assay was performed as described by Angiolillo et al. (J. Exp. Med. 182:155-162, 1995). Matrigel, a crude extract of the Englebreth-Holm-Swarm tumor, was obtained from Collaborative Biomedical Products, Becton Dickinson Labware, Bedford, Mass. An aliquot (0.5 ml) of Matrigel alone or with desired additives was injected subcutaneously (s.c.) into the mid abdominal region of female BALB/c nude mice, 6-8 weeks old. Five mice were injected with each mixture. After 5-7 days, the animals were sacrificed, Matrigel plugs were removed, fixed in 10% neutral buffered formalin solution (Sigma), and embedded in paraffin. Tissues were sectioned (5μ thickness), and slides stained with Masson's trichrome. Quantitative analysis of angiogenesis in Matrigel plugs utilized a computerized semi-automated digital analyzer (Optomax, 40-10 System, Hollis, N.H.). The instrument was adjusted to evaluate a circular area measuring […] of Matrigel, and within this area, to measure the area occupied by cells. For each plug, 12-15 distinct fields were evaluated. The fields were randomly selected from each plug, and the operator was blind to the experimental design. The average area occupied by cells/1.26×10^5 […] Matrigel field was calculated. Results are expressed as the mean area occupied by cells/Matrigel field.
Matrigel plugs were fixed in 10% neutral buffered formalin solution (Sigma), embedded in paraffin, sectioned at 4 μm, and stained with Masson's trichrome by standard methods.

Molecule	rate of tumor growth and mean weight of tumors compared with formulation buffer [1]	rate of Burkitt tumor growth compared to controls [2]	inhibition of fetal bovine heart endothelial cell proliferation ([3]; 0.5 μg/ml, bFGF-induced)	endothelial cell growth inhibitory activity in vitro, side-by-side comparison on a molar basis ([3]; 0.4-32 nM, bFGF 15 ng/ml, 5 days)	binding to peptide affinity column [4]	Inhibition (%) [5]	Mean Surface Area Occupied by Cells [5]
B1	reduced						
B2		significantly reduced	65%	similar	failed to bind	70%	2,458 mm^2/1.26 × 10^5 mm^2
